Ends that are not written are not given here.
Key:
Assay in all cases: EIA; Ab 2000 ng/mL captured on anti-mouse Fc; bt-peptide 500 ng/mL
[1] = target: T1, Mut1T110N biotin labeled HCV core peptide (hepatitis C virus, biotin labeled)
T1 peptide: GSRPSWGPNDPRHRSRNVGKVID

[2] = target: T2, C113WT biotin labeled HCV core peptide (hepatitis C virus, also: biotin labeled, position not given here)
T2 peptide: RGSRPSWGPTD

[3] = target: Mut6T110S biotin labeled HCV core peptide (hepatitis C virus)
[4] = target: T3, C113T109N biotin labeled HCV core peptide (hepatitis C virus, also: biotin labeled, position not given here)
T3 peptide: RGSRPSWGPND

[5] = target: T4, WT1STHV biotin labeled HCV core peptide (hepatitis C virus, biotin labeled)
T4 peptide: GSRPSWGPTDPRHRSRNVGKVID

B1: HCV Neo4 monoclonal antibody (antibody, V domains shown)
VH: QIQLKESGPAVIKPSQSLSLTCIVSGFSITSSVYCWQWIRQPPGKGLEWMGRICYDGSVDYSPSITSRGTISRDTSLNKVFFQLSSVTNEDTAMYYCSRENHIDYYDTTYPSFDVWGAGTTVTVSS
VL: DIVLTQSPASLIVSLGQRATISCRASKSVNEYGYTYMHWYQQKPGLPPKLLIYLASNLDSGVPARFSGSGSGTDFTLNIHPVEEEDAATYYCQHSRELPYTFGGGTKLEIKR
signal at 492 nm [1]: 0.0882 OD 492 nm | signal at 492 nm [2]: 0.0766 OD 492 nm | signal at 492 nm [3]: 1.17 OD 492 nm | signal at 492 nm [4]: 0.059 OD 492 nm | signal at 492 nm [5]: 1.9 OD 492 nm

Source: patent US20170052184A1 (published 2017)
